From PMC12056172

Target: FLAG-tagged RHOA (UniProt P61586)
Experiment: co-IP

Chain of UniProt P61586 (P61586 whole entry): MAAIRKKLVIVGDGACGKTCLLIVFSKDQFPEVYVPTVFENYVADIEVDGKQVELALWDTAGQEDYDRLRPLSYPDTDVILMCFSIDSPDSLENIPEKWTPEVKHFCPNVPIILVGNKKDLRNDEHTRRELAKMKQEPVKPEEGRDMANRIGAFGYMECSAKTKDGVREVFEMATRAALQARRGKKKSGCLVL

Substance: DAAM1-ΔDAD without microexon (-MIC) (domain or fragment)
- decrease of the co-IP signal against the +MIC construct: 40%
